Target: T1, WT SCCE (Stratum Corneum Chymotryptic Enzyme) (Homo sapiens, UniProt P49862)
T1 construct: made in house; host or cells: High 5 insect cells, transient transfection with pIE1-153A V4+ plasmid, protein secreted into the medium, Ni-NTA purified
Assay: Panning of the 6mer tandem phage peptide display library against WT SCCE, four rounds, clones sequenced
Format: binding
Conditions: for Hypervarible Domain, DNA sequence of clone, 6 mer Lib Panning Round 4 SCCE WT / Hypervarible Domain, peptide sequence of clone, 6 mer Lib Panning Round 4 SCCE WT: 6mer library, panning round 4 against SCCE WT; for Hypervarible Domain, DNA sequence of clone, 6 mer Lib Panning Round 4 SCCE WT: flanking TGC (Cys) codons; for Hypervarible Domain, peptide sequence of clone, 6 mer Lib Panning Round 4 SCCE WT: translated hexapeptide
Experimental: Packaging of Phagemids from Cells • 1. Re-suspend the complete lawns of the E. coli cells in 20 ml of LB/Amp/Tc medium and use 2 ml for inoculation of 50 ml LB/Amp/Tc medium (250 ml Erlenmeyer flask). • 1. Incubate at 180 rpm and 37° C. for 1 hour, add […] of M13K07 stock solution (10^11-10^12 cfu/ml) and incubate for 15 minutes at 37° C. without shaking. • 2. Allow the culture to shake at 37° C. for 45 min, then add Kanamycin (final concentration of 50 μg/ml) and continue the incubation at 37° C. @ 180 rpm overnight. • 3. The next day, centrifuge for 15 minutes at 8,000 rpm and 4° C. (GS3 rotor, Sorvall RC5C). • 4. Transfer the supernatant into a new centrifuge bottle and centrifuge again. • 5. Transfer the supernatant again, add 0.15 vol of PEG/NaCl solution, mix and incubate on ice for at least 2 hours. • 6. Centrifuge for 40 minutes at 8,000 rpm (GS3 rotor) • 7. Decant the supernatant, repeat the centrifugation for 1 minute at 4,000 rpm and remove last traces of supernatant using a pipet. • 8. Re-suspend each PEG-pellet in 1.0 ml PBS solution and collect the re-suspended phages in one SS34 centrifuge bottle • 9. To clear the suspension, centrifuge again for 10 minutes at 12,000 rpm (SS34 rotor). • 10. Recover the supernatant (pipet), add NaN3 to a final concentration of 0.02% and store the library at 4° C. Determination of Phagemid (Library) Titer (Colony Forming Units [CFU] Assay) • 1. Inoculate 20 ml of LB/Tc (20 μg/ml) medium with 200 μl of an E. coli WK6λmutS overnight culture (37° C.; LB/Tc) and incubate at 37° C. and 180 rpm for 2 to 3 hours (OD600=0.5) • 2. Fill 12 wells of a sterile 96-well culture dish with 90 μl of autoclaved water and prepare dilution series by transferring 10 μl aliquots of the library stock (dilutions 10^−1 to 10^−12). • 3. Add 100 μl of logarithmic growing cells, mix and incubate for 30 min at 37° C. • 4. Spot 20 μl portions of each well on LB/Amp/Tc agar plates and incubate over night at 37° C. • 5. As a control use 20 μl of non-infected log-phase cells spotted on LB/Amp/Tc and LB/Tc agar plates. • 6. Count the number of colonies on the next day and determine the titer. Panning Protein Targets • WT SCCE is the Stratum Corneum Chymotryptic Enzyme subdloned in the pIE vector and adapted with a carboxy-terminal polyglycine linker and polyhistidine sequence to facilitate purification and immobilization (see WT SCCE preparation below). The adaptations were performed using a QuickChange mutagenesis kit. The sequence is listed in document SCCE His6 pIE.doc. • Fyn SCCE is the Stratum Corneum Chymotryptic Enzyme adapted with a polyglycine liker, the Fyn SH3 domain and additional polyglycine linker and a polyhistidine sequence (see Fyn SCCE preparation below). The final sequence is listed in document SCCE FYN His6 pIE.doc. The modifications to create Fyn SCCE were performed using WT SCCE as a template using a QuickChange mutagenesis kit. • The expression and purification of WT SCCE and Fyn SCCE are presented in document SCCE production.doc Pre-Adsorption of Library with Matrix to Remove Non-Specific Binding • 1. Take 25 μl Ni-NTA Magnetic Agarose Beads (Qiagen) in a 1.5 ml tube (siliconized), labeled pre-adsorption library. • 2. Place in Magnet and remove Sup. • 3. Wash 2 times (2 min each time) with 500 μl Ni-NTA Binding Buffer (50 mM NaH2PO4 pH8.0, 300 mM NaCl, 10 mM Imidazole) to equilibrate beads to Immidizole. • 4. Add 200 μl TBS-T 0.1% BSA+200 μl (10^12 phage) of 6mer library to tube labeled pre-adsorption library (to remove phage that stick non-specifically to the beads). • 5. Incubate @ room temperature for 1 h w/rotation. Coating Matrix with Target Protein • 6. Take 25 μl Ni-NTA Magnetic Agarose Beads (Qiagen) in 2 separate 1.5 ml Ep tubes (siliconized), labeled SSCE-WT and SCCE-FYN. • 7. Place in Magnet and remove Sup. • 8. Wash 2 times (2 min each time) with (500 μl) Ni-NTA Binding Buffer (50 mM NaH2PO4 pH8.0, 300 mM NaCl, 10 mM Imidazole) to equilibrate beads to Immidizole. • 9. […]

T1 sequence (P49862 30-253): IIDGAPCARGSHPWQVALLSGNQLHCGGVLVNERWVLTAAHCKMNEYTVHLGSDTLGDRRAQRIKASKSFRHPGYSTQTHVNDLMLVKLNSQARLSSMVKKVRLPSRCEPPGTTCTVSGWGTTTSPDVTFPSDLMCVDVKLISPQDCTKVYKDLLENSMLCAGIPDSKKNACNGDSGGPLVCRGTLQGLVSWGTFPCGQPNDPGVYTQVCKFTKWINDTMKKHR

Row | Hypervarible Domain, DNA sequence of clone, 6 mer Lib Panning Round 4 SCCE WT | Hypervarible Domain, peptide sequence of clone, 6 mer Lib Panning Round 4 SCCE WT | Clone sequence also found in the other panning (remark) (panning round 4 SCCE WT) | Substance
1 | TGCCAGCCGCATACGTGGAAGTGC | Gln Pro His Thr Trp Lys | (Also in SCCE FYN) | 041307_3 (QPHTWK; printed: Gln Pro His Thr Trp Lys)
2 | TGCACGGCTGCGGTGGATCAGTGC | Thr Ala Ala Val Asp Gln |  | 041307_4 (TAAVDQ; printed: Thr Ala Ala Val Asp Gln)
3 | TGCAAGCAGAATAGTGAGGCGTGC | Lys Gln Asn Ser Glu Ala |  | 041307_5 (KQNSEA; printed: Lys Gln Asn Ser Glu Ala)
4 | TGCCCTGTGGCGGAGACGCCTTGC | Pro Val Ala Glu Thr Pro |  | 041307_7 (PVAETP; printed: Pro Val Ala Glu Thr Pro)
5 | TGCACGCCTAATTCTGCGATTTGC | Thr Pro Asn Ser Ala Ile |  | 041307_8 (TPNSAI; printed: Thr Pro Asn Ser Ala Ile)
6 | TGCAGTCATGTTAGGCGTAATTGC | Ser His Val Arg Arg Asn |  | 041307_10 (SHVRRN; printed: Ser His Val Arg Arg Asn)
7 | TGCCATCATGGGCTTATTGTGTGC | His His Gly Leu Ile Val |  | 041307_11 (HHGLIV; printed: His His Gly Leu Ile Val)
8 | TGCTATGCGAAGACGATGCGGTGC | Tyr Ala Lys Thr Met Arg |  | 041307_12 (YAKTMR; printed: Tyr Ala Lys Thr Met Arg)
9 | TGCCATCATGGGCTTATTGTGTGC | His His Gly Leu Ile Val |  | 041307_17 (HHGLIV; printed: His His Gly Leu Ile Val)
10 | TGCCATCATGGGCTTATTGTGTGC | His His Gly Leu Ile Val |  | 041307_18 (HHGLIV; printed: His His Gly Leu Ile Val)
11 | TGCCATCATGGGCTTATTGTGTGC | His His Gly Leu Ile Val |  | 041307_19 (HHGLIV; printed: His His Gly Leu Ile Val)
12 | TGCCATCATGGGCTTATTGTGTGC | His His Gly Leu Ile Val |  | 041307_22 (HHGLIV; printed: His His Gly Leu Ile Val)
13 | TGCACTCCTCTGGCGCTTCCTTGC | Thr Pro Lys Ala Lys Pro |  | 041307_25 (TPKAKP; printed: Thr Pro Lys Ala Lys Pro)
14 | TGCAAGAAGAAGAAGACGAAGTGC | Lys Lys Lys Lys Thr Lys |  | 041307_27 (KKKKTK; printed: Lys Lys Lys Lys Thr Lys)
15 | TGCCATCATGGGCTTATTGTGTGC | His His Gly Leu Ile Val |  | 041307_29 (HHGLIV; printed: His His Gly Leu Ile Val)
16 | TGCCCGAATAATAAGATTAGGTGC | Pro Asn Asn Lys Ile Arg |  | 041307_30 (PNNKIR; printed: Pro Asn Asn Lys Ile Arg)
17 | TGCACTTCTACTAGGCCTCCTTGC | Thr Ser Thr Arg Pro Pro |  | 041307_31 (TSTRPP; printed: Thr Ser Thr Arg Pro Pro)
18 | TGCCATATGAATATGTATATTTGC | His Met Asn Met Tyr Ile |  | 041307_32 (HMNMYI; printed: His Met Asn Met Tyr Ile)
19 | TGCACGGGGGCGGGGCGGTCGTGC | Thr Gly Ala Gly Arg Ser |  | 041307_35 (TGAGRS; printed: Thr Gly Ala Gly Arg Ser)
